Laboratory results as given in patent publication US20160200782A1 (MOERAE MATRIX, published 2016).

T1: NEK11(h) (human, UniProt Q8NG66 1-645, limits assumed)
T1 sequence (looked up): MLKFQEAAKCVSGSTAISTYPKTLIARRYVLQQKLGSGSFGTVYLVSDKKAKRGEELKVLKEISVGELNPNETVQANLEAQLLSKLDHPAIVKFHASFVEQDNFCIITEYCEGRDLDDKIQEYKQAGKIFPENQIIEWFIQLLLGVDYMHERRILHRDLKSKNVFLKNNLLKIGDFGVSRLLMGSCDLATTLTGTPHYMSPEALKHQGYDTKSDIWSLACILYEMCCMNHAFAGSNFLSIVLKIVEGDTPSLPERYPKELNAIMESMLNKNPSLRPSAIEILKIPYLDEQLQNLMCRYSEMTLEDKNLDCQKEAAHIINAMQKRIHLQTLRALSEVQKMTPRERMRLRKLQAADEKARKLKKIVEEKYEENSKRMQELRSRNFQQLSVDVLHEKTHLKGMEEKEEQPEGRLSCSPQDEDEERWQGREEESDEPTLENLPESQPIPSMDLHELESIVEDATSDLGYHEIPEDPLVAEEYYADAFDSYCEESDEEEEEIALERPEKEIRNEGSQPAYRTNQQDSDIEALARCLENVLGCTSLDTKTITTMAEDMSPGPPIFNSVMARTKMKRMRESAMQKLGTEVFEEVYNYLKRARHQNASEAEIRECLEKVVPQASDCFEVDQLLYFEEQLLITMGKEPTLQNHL

T2: MST1(h) (human, UniProt Q13043 1-487, limits assumed)
T2 sequence (looked up): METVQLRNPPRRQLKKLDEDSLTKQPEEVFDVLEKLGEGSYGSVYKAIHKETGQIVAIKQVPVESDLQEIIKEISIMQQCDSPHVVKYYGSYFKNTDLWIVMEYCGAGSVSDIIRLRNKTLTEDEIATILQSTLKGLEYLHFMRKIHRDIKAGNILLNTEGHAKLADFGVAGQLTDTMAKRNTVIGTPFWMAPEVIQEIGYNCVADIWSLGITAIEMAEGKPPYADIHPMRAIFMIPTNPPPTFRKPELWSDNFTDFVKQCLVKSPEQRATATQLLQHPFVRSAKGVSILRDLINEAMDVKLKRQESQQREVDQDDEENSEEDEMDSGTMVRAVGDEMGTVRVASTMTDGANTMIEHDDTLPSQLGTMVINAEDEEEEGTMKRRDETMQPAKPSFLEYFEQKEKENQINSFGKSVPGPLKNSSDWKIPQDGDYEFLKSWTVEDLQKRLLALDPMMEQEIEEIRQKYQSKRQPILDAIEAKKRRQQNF

T3: Bmx(h) (human, UniProt P51813 1-675, limits assumed)
T3 sequence (looked up): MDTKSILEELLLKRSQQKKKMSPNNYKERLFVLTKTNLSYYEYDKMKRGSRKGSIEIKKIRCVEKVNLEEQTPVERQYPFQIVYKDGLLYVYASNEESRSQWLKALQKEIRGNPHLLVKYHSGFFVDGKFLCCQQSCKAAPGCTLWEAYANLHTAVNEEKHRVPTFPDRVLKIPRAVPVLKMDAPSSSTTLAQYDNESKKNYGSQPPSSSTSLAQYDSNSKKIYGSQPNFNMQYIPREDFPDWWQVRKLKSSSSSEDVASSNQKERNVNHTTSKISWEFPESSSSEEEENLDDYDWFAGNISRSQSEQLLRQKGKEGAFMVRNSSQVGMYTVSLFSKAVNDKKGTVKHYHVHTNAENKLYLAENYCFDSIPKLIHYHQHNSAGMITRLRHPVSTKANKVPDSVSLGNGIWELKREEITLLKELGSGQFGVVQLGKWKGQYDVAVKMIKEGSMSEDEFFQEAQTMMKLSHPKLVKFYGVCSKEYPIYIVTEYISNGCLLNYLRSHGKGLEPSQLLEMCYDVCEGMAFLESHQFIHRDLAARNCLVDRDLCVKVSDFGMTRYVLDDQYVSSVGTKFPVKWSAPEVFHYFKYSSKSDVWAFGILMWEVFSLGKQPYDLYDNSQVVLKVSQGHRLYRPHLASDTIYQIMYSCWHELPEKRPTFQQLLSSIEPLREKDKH


Tests used:
Assay in all cases: cell-based or functional assay
[1] = biological target: Yes(h) (human, UniProt P07947 1-543, limits assumed)
[2] = biological target: T1, NEK11(h)
[3] = biological target: Ab1(M351T)(h) (human, UniProt P00519 27-1130, limits assumed)
[4] = biological target: Lck(h) (human, UniProt P06239 1-509, limits assumed)
[5] = biological target: JAK2(h) (human, UniProt O60674 808-1132, limits assumed)
[6] = biological target: CLK2(h) (human, UniProt P49760 1-499, limits assumed)
[7] = biological target: CK1γ2(h) (human, UniProt P78368 1-415)
[8] = biological target: T2, MST1(h)
[9] = biological target: CK1γ3(h) (human, UniProt Q9Y6M4 1-447)
[10] = biological target: SIK(h) (human, UniProt P57059 1-783, limits assumed)
[11] = biological target: TLK2(h) (human, UniProt Q86UE8 1-772, limits assumed)
[12] = biological target: ACK1(h) (human, UniProt Q07912 110-476, limits assumed)
[13] = biological target: T3, Bmx(h)
[14] = biological target: SRPK2(h) (human, UniProt P78362 1-688, limits assumed)
[15] = biological target: Tie2(R849W)(h) (human, UniProt Q02763 771-1124, limits assumed)
[16] = biological target: CK1γ1(h) (human, UniProt Q9HCP0 1-422)
[17] = biological target: GRK5(h) (human, UniProt P34947 1-590)
[18] = biological target: MAPK1(h) (human, UniProt P28482 1-360, limits assumed)
[19] = biological target: JAK3(h) (human, UniProt P52333 781-1124, limits assumed)
Sequence of JAK3(h) (P52333 781-1124 limits assumed): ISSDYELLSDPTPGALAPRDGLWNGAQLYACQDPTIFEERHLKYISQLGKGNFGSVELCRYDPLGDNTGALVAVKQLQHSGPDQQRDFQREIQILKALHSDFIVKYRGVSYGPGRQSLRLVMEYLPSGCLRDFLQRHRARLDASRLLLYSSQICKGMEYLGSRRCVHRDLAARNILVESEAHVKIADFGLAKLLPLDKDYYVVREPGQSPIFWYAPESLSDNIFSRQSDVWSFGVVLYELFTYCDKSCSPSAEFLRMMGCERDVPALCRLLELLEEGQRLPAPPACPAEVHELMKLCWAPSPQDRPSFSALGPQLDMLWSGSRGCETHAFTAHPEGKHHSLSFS

Sequence of JAK2(h) (O60674 808-1132 limits assumed): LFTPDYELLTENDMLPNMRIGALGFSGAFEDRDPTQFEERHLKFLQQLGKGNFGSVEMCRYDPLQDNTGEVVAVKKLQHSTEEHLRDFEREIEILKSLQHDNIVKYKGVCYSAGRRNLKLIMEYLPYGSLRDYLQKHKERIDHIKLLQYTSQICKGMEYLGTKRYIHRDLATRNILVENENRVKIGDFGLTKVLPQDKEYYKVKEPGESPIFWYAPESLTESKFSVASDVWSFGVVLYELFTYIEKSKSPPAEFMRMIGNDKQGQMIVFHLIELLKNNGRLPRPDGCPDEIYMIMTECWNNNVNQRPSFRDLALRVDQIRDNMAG
Sequence of SIK(h) (P57059 whole entry): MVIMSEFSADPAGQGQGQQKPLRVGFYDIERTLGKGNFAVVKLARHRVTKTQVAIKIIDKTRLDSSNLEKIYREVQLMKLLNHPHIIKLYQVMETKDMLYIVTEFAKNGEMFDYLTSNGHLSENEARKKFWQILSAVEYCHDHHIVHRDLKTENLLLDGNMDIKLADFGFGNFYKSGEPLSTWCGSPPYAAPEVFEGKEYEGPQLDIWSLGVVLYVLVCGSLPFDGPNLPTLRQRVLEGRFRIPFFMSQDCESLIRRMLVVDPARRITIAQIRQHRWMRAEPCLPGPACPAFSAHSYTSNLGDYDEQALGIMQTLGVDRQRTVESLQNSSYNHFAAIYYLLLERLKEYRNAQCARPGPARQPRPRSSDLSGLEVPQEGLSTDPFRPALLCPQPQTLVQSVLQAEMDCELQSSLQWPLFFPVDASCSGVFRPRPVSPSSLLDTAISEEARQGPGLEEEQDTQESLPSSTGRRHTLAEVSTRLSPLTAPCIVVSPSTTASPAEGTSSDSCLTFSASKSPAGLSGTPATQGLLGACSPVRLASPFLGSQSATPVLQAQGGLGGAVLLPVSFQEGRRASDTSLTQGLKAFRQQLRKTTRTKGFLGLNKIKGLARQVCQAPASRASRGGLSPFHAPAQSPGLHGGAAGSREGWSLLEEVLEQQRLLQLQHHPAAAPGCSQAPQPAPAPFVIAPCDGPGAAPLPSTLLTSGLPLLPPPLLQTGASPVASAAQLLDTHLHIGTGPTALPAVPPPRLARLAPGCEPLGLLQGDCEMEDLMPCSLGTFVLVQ
Sequence of Yes(h) (P07947 whole entry): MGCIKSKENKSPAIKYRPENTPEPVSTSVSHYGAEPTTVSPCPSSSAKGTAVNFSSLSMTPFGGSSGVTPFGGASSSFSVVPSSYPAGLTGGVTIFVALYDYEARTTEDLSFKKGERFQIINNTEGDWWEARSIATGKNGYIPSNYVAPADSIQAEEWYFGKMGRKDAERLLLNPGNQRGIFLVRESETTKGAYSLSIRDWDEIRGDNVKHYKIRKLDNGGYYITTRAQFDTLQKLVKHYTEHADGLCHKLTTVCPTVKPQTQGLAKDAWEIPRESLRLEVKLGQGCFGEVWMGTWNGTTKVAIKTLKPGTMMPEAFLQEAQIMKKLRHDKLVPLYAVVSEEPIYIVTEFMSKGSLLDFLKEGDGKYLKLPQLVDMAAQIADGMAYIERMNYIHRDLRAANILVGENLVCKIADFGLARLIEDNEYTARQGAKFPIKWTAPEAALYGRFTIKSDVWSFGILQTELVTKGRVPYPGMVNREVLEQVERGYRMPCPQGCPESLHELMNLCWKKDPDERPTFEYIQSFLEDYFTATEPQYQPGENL
Sequence of GRK5(h) (P34947 whole entry): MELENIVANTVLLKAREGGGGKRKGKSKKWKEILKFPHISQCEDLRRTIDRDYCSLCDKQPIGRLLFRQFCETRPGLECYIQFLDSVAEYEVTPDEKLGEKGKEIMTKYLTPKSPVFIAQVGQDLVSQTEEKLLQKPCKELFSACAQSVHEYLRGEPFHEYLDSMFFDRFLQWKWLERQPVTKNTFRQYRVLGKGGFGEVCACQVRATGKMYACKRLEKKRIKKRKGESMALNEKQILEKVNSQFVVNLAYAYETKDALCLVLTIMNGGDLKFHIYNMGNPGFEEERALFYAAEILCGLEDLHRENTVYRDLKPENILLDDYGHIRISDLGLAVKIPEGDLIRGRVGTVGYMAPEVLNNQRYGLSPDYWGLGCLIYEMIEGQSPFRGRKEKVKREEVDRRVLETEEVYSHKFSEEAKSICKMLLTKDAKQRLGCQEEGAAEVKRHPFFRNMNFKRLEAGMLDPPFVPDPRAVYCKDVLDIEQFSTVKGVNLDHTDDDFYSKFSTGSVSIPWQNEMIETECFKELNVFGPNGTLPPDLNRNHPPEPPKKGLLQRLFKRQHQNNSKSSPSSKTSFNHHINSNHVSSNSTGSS
Sequence of Tie2(R849W)(h) (Q02763 771-1124 R849W limits assumed): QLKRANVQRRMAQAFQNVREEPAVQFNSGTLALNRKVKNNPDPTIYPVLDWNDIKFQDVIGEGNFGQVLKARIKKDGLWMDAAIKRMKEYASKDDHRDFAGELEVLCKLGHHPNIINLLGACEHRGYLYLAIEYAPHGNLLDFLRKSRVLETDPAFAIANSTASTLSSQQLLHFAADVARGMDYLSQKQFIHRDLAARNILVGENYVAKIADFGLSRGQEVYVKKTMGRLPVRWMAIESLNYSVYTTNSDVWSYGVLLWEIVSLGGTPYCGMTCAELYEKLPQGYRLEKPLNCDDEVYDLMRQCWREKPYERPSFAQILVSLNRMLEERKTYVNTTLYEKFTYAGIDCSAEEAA
Sequence of CK1γ2(h) (P78368 whole entry): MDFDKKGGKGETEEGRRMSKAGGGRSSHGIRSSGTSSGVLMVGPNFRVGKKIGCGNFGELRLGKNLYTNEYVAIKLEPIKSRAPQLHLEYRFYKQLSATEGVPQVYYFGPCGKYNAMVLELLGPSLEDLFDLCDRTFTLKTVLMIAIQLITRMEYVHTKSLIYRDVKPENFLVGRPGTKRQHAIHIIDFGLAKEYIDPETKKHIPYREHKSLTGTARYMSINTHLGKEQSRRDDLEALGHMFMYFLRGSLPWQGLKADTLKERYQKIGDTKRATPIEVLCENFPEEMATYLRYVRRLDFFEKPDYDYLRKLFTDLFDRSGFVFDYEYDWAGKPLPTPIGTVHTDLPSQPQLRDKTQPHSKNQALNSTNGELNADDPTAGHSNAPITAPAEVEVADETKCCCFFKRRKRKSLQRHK
Sequence of CK1γ1(h) (Q9HCP0 whole entry): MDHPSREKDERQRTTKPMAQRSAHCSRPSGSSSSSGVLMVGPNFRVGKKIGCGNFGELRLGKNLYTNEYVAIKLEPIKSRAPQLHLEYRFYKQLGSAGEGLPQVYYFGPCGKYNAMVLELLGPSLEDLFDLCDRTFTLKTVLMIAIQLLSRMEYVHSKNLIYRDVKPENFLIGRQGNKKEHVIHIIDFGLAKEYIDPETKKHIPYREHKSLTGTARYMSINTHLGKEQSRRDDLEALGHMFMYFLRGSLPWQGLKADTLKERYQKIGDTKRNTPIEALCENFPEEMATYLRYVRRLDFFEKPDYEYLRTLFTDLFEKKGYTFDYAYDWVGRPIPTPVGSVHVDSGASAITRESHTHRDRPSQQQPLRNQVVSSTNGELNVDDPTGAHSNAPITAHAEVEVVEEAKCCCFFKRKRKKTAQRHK
Sequence of TLK2(h) (Q86UE8 whole entry): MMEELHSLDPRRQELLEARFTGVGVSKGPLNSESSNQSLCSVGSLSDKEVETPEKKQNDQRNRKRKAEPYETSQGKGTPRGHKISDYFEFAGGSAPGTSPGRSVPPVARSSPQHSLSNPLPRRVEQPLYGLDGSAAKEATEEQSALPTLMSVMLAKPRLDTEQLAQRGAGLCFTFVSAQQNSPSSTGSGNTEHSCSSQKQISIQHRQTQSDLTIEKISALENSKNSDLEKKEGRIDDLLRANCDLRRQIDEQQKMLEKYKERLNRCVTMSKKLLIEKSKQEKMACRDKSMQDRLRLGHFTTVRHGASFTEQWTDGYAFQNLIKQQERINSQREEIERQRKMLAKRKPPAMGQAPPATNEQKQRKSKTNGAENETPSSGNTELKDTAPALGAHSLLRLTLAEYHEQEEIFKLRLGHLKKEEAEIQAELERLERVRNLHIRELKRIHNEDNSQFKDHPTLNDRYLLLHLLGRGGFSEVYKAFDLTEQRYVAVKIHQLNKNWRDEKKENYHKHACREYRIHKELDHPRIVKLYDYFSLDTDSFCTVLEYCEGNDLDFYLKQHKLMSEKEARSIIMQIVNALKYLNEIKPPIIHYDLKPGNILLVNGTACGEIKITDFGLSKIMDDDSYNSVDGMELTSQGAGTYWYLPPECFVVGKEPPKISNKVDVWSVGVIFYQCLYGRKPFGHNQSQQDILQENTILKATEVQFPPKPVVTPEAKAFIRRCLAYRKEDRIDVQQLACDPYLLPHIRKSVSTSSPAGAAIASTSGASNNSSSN
Sequence of ACK1(h) (Q07912 110-476 limits assumed): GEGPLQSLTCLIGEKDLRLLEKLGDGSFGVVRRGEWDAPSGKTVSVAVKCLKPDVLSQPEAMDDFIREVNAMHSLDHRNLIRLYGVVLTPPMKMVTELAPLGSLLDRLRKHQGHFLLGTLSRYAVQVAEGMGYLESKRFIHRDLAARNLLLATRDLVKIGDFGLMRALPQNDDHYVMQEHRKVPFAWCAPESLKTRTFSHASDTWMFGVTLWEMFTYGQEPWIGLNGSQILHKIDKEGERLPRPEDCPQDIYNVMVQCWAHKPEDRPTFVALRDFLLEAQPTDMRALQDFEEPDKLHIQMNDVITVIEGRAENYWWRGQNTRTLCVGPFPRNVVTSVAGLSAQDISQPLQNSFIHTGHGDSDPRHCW

% activity [1]	% activity [2]	% activity [3]	% activity [4]	% activity [5]	% activity [6]	% activity [7]	% activity [8]	% activity [9]	% activity [10]	% activity [11]	% activity [12]	% activity [13]	% activity [14]	% activity [15]	% activity [16]	% activity [17]	% activity [18]	% activity [19]	Binder
67%	53%	90%	-2%	133%	103%	123%	14%	125%	66%	–	–	–	–	–	–	–	–	–	FAKLAARLYRKALARQLGVAA [MMI-0300]
14%	33%	–	–	119%	–	–	6%	–	68%	151%	95%	26%	97%	108%	116%	131%	100%	122%	KAFAKLAARLYRKALARQLGVAA [MMI-0400]
